Like-named read-outs stand apart in the source and are kept apart here.
How the values were obtained:
[1] = test system: biofilms present in CF sputum; experiment: disruption of CF sputum (optical density of surrounding media); conditions: CF sputum suspensions in PBS, 37° C.; compared with Pulmozyme and anti-DNABII
Protocol: FIGS. 10A-10B: HMGB1 In specimens from biofilm-associated diseases. (FIG. 10A) Sections of OCT-embedded mucosal biomass from an NTHI-infected chinchilla middle ear were co-labeled for HMGB1 and DNABII protein for immunofluorescence microscopy. Double stranded eDNA was labeled with DAPI (white). (FIG. 10B) CF sputum incubated with antibiofilm treatments (PBS, 1:10 rabbit a-1HFEc, serum, 100 U/ml Pulmozyme® (DNase), 1 mM rHMGB1) at 37° C. for […] and optical density of surrounding media was measured at 0 hour and 2 hour.
HMGB1 disrupts biofilms present in clinical specimens: Biofilms at chronic disease sites (e.g. CF lung), consist of multiple species and by nature are difficult to eradicate. It has been shown that anti-DNABII antibodies to disrupt biofilms present in CF sputum.

[2] = test system: NTHI biofilms; format: in vivo, chinchilla; conditions: for reduction in CFU of NTHI: 0.2 nmol to middle ear at days 4 and 5 post-challenge, day 6, vs diluent
Protocol: FIGS. 8A-8F: rHMGB1 and mHMGB1 promote biofilm resolution in an experimental otitis media model. Diluent, 0.2 nmol rHMGB1, or 0.2 nmol mHMGB1 were delivered directly to middle ears of chinchillas at 4 and 5 days post-challenge with NTHI. Animals were sacrificed 24 h later, middle ears were imaged (FIG. 8C, representative images) and, based on the criteria described in (FIG. 8A, biofilm) and (FIG. 8B, inflammation), blindly scored for presence of biofilm (FIG. 8D) and inflammation (FIG. 8F). CFU of NTH1 present in the mucosal biomass were quantified (FIG. 8E). Means and SEM are plotted. **P<0.01, ****P<0.0001.
rHMGB1 and mHMGB1 disrupt biofilms in two distinct animal models but the inflammatory response is strongly attenuated with Cys to Ser mutations: Applicant tested both rHMGB1 and mHMGB1 for their ability to treat middle ear infection and the corresponding inflammatory response using a well-established chinchilla model of experimental OM due to NTHI49,67,68 wherein adhered mucosal biofilm formation plays a key role in pathogenesis (FIG. 8A). The middle ear of mixed sex, outbred adult chinchillas were inoculated with 1000 CFU NTHI by transbullar injection. At days 4 and 5 post-challenge, at which time there is abundant biofilm present in the middle ear space, […] of rHMGB1, mHMGB1, or diluent was delivered directly to the middle ear (2 total treatments). On day 6, animals were sacrificed and middle ears were imaged and blindly scored for biofilm that remained (FIG. 8A) and mucosal inflammation (FIG. 8B). […] In contrast, MEFs from mHMGB1-treated animals had increased anti-inflammatory cytokines [IL-4 (2-fold), IL-10 (5-fold)] […] Next, Applicant determined whether rHMGB1 or mHMGB1 could prevent or […] biofilm development. For prevention, adult C57BL/6 mice were challenged with 10^7 CFU of Bc intratracheally (i.t.), and 0.2 nmol of rHMGB1 or mHMGB1 was added simultaneously. After 18 h, mice were euthanized, and bronchoalveolar lavage (BAL) and lungs were collected. Bc formed aggregates that were readily visible in lung sections probed with Bc antibody (FIG. 7A). Tissue was homogenized and CFUs were enumerated. […] This same animal model was then used to investigate lung damage 72 h post-challenge with Bc and administration of rHMGB1 or mHMGB1. Lungs were collected and tissue was fixed, embedded in paraffin, sectioned, and stained with Haematoxylin and Eosin (H&E). […] Next, Applicant assessed the ability of rHMGB1 and mHMGB1 to treat established Bc infection. Mice were challenged as above and 0.2 nmol rHMGB1 or mHMGB1 was administered 24 h later. 48 h after treatment, mice were euthanized and BAL and lungs were collected and processed as above. […]

[3] = test system: serum TNF-alpha (TNF-α); conditions: cited from earlier work
[4] = test system: serum TNF-alpha (TNF-α); format: in vivo, mice; conditions: 24 h; for serum TNF elicited on their own: 0.2 nmol endotoxin free protein i.p., naive mice; for additional pro-inflammatory signaling in LPS-primed mice: 0.2 nmol i.p. with LPS 5 mg/kg
Protocol: FIGS. 7A-7G: HMGB1 promotes clearance of S. cenocepaca from mice without inducing sepsis. C57BL/6 mice were challenged with 10^7 CFU intratracheally, and either simultaneously (prevention) or 24 h later (treatment) received 0.2 nmol of HMGB1 valiant. (FIG. 7A) Aggregates of B. cenocepacia were visible by fluorescence microscopy in lung sections probed with an α-B. cenocepacia antibody. For prevention, (FIG. 7B) bronchoalveolar lavage (BAL) collected 18 h post-inoculation (hpi) was analyzed for CFU. (FIG. 7C) Neutrophils in BAL were quantified by differential cell counting. (FIG. 7D) Lung tissue collected 72hpi was fixed, embedded, sectioned, and stained with hematoxylin & eosin (10× magnification). For treatment, 72hpi (FIG. 7E) CFUs were quantified in BAL. (FIG. 7F) Neutrophil recruitment was analyzed 24 h after intraperitoneal (i.p.) administration of HMGB1 valiants by fluorescence-activated cell sorting of peritoneal lavage stained with α-CD45, α-CD11b, and αLy-6G. (FIG. 7G) Serum TNF-α. was measured by ELISA in mice injected i.p. with 0.2 nmol HMGB1 valiants, 5 mg/kg LPS, or both. LoD: limit of detection. Bars represent SD. *P<0.05.
Mice were monitored for 24 h for signs of sepsis, then serum TNF-alpha (TNF-α) levels were measured by ELISA as a surrogate for sepsis induction. […] It has been reported, that compared to our doses, >450-fold for B Box alone, or 4 doses of 2-fold greater amounts of rHMGB1 in 40 h with lipopolysaccharide (LPS)-primed mice20 are required to induce sepsis. In addition, these endotoxin-free polypeptides were tested for anti-biofilm activity in vitro as described above and found to maintain full function against UPEC and Bc biofilms (data not shown).

Molecule | disruption of CF sputum [1] | reduction in CFU of NTHI [2] [fold] | increased IL-1β in middle ear fluids ([2]; in vivo) [fold] | increased IL-17A in middle ear fluids ([2]; in vivo) [fold] | amount required to induce sepsis, compared to our doses ([3]; 4 doses in 40 h, LPS-primed mice) [fold] | serum TNF elicited on their own [4] | additional pro-inflammatory signaling in LPS-primed mice [4] | amount required to induce sepsis, compared to our doses ([3]; B Box alone) [fold]
rHMGB1: tagless human recombinant full length HMGB1 (1-215) expressed in E. coli | can disrupt biofilms present in CF sputum | ~1000 | 3 | 2 | 2 | neither rHMGB1, B Box, nor mB Box elicited detectable TNF | none induced additional pro-inflammatory signaling | 
mHMGB1: engineered C45S variant of full length rHMGB1 that mimics the reduced form of HMGB1 (protein, UniProt P09429 1-215, looked up, variant C45S, full-length, engineered C45S variant of full length rHMGB1 that mimics the reduced form of HMGB1) MGKGDPKKPRGKMSSYAFFVQTCREEHKKKHPDASVNFSEFSKKSSERWKTMSAKEKGKFEDMAKADKARYEREMKTYIPPKGETKKKFKDPNAPKRPPSAFFLFCSEYRPKIKGEHPGLSIGDVAKKLGEMWNNTAADDKQPYEKKAAKLKEKYEKDIAAYRAKGKPDAAKKGVVKAEKSKKKKEEEEDEEDEEDEEEEEDEEDEDEEEDDDDE |  | ~1000 |  |  |  |  |  | 
B-linker Box: HMGB1 B Box with N- and C-terminal linker (80-179; 80 to 176 in b258), 97 amino acid (protein, UniProt P09429 80-179, looked up, fragment) PPKGETKKKFKDPNAPKRPPSAFFLFCSEYRPKIKGEHPGLSIGDVAKKLGEMWNNTAADDKQPYEKKAAKLKEKYEKDIAAYRAKGKPDAAKKGVVKAE | disrupted sputum effectively |  |  |  |  | neither rHMGB1, B Box, nor mB Box elicited detectable TNF | none induced additional pro-inflammatory signaling | > 450
